Molecular target: T1, GST-Brm 304-747 (Drosophila, UniProt P25439 304-747)
T1 construct: in pGEX5X-1; also called middle part of Brm protein; source: E. coli Rosetta2, extracted and dialysed
Assay: pull-down; GST-Brm fragments as baits, MBP-Tctp as prey, 5 micrograms each; PDB (20 mM Tris-HCl pH 7.5, 150 mM NaCl, 0.5 mM EDTA, 10% glycerol, 0.1% Triton X-100, 1 mM DTT) with 0.2% BSA, 2-3 h at 4 °C; western blot with anti-GST and anti-MBP; proteins extracted from E. coli and dialysed
Conditions: both partners purified

T1 sequence (P25439 304-747): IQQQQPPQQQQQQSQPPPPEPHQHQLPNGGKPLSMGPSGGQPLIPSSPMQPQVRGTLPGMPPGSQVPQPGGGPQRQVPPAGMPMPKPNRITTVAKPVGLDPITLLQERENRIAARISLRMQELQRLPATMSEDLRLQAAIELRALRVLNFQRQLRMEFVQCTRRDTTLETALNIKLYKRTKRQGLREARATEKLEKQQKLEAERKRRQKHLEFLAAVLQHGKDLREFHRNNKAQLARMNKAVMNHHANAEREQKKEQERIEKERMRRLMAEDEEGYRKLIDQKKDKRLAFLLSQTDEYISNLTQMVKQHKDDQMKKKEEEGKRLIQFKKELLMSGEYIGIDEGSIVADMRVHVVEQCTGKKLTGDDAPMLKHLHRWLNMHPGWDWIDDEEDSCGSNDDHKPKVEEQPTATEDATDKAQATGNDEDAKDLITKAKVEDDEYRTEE

B1: MBP-Tctp (natural protein, Drosophila, UniProt Q9VGS2 1-172, looked up)
chain: MKIYKDIITGDEMFADTYKMKLVDDVIYEVYGKLITRQGDDIKLEGANASAEEADEGTDITSESGVDVVLNHRLTECFAFGDKKSYTLYLKDYMKKVLAKLEEKSPDQVDIFKTNMNKAMKDILGRFKELQFFTGESMDCDGMVALVEYREINGDSVPVLMFFKHGLEEEKC
notes: Drosophila Tctp in pMAL-c2; also called MBP-tagged Tctp; source: E. coli Rosetta2, extracted and dialysed
B1: binds.

Source: PMC5056459, “Antagonistic roles of Drosophila Tctp and Brahma in chromatin remodelling and stabilizing repeated sequences” (Nature Communications, 2016)
